# Measurements reported in US20250121082A1 (SHANDONG BOAN BIOTECHNOLOGY, published 2025).
# Changes are numbered by the printed parent chain.
# T1: Human CD228 protein (human, UniProt P08582 20-708, limits assumed)
# T1 construct: Recombinant protein made in CHO cells, purified over a Ni column; The printed entry begins with the leader (MRGPSG...) and ends with ten His; also called hCD228; CD228-His protein
# T1 sequence: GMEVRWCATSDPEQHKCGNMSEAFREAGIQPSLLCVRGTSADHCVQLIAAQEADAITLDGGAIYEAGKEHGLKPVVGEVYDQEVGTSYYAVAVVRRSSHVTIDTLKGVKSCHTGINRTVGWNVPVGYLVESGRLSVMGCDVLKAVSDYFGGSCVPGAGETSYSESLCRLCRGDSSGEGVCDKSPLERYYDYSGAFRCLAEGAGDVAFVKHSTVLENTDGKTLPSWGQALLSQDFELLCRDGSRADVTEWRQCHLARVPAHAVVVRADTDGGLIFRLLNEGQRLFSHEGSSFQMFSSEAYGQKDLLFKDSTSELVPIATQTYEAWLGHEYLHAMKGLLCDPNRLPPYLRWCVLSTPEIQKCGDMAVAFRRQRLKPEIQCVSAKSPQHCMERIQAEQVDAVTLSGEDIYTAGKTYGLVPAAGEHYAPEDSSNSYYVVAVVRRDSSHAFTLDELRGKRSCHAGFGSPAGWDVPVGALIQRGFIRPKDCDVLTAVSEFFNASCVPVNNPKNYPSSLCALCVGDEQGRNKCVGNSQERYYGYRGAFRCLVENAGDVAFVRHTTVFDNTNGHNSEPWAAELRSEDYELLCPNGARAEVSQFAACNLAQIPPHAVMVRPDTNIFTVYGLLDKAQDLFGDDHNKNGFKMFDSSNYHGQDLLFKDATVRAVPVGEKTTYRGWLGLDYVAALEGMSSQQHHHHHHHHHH
# B1: CA149 (antibody, human IgG1, kappa, V domains shown)
# VH: EVQLVESGGGVVQPGRSLRLSCAASGFTFSSYAMHWVRQAPGKGLEWVAVISFDGSNKYYTDSVKGRFTISRDNSKNTLYLQMNSLRAEDTAVYYCAREVPYYYGSGPFDYWGQGTLVTVSS
# VL: EIVLTQSPATLSVSPGERATLSCRASQSVSSNLAWYQQKPGQAPRHLIDGASSRASGIPDRFSGSGSGTDFTLTISRLEPEDFAVYYCQQYGSSPPFTFGPGTKVDIKR
# notes: Intact IgG1; also called CA149 antibody
# B2: CA185 (antibody, human IgG1, kappa, V domains shown)
# VH: B1 VH with F53Y, T61A
# VL: EIVLTQSPGTLSLSPGERATLSCRASQSVSSSSLAWYQQKPGQAPRHLIDGASSRASGIPDRFSGSGSGTDFTLTISRLEPEDFAVYYCQQYGSSYTFGQGTKVDIKR
# notes: Intact IgG1
# B3: BA352 (antibody, human IgG1, kappa, V domains shown)
# VH: EVQLVESGGGVVQPGRSLRLSCAASGFTFSSYAMHWVRQAPGKGLEWVAVISYDGSNKYYADSVKGRFTISRDNSKNTLYLQMNSLRAEDTAVYYCARGPYLAAAGTALTFDIWGQGTMVTVSS
# VL: DIQMTQSPSAMSASVGDRVTITCRASQGINNYLAWFQQKPGKVPKRLIYAASSLQSGVPSRFSGSGSGTEFTLTISSLQPEDFATYYCLQHNSYPFTFGPGTKVDIKR
# notes: Intact IgG1
# B4: CA13 (antibody, human IgG1, kappa, V domains shown)
# VH: EVQLVESGGGVVQPGRSLRLSCAASGFTFSSYAMHWVRQAPGKGLEWVAVISYDGSNKYYADSVKGRFTISRDNSKNTLFLQMNSLRAEDTAVYYCARDVYHYGSRSPYYYGMDVWGQGTTVTVSS
# VL: DIVMTQSPSSLSASVGDRVTITCRASQGISNYLAWFQQKPGKVPKLLIYAASTLQSGVPSRFSGSGSGTDFTLTISSLQPEDVATYYCQKYNSAPFTFGPGTKVDIKR
# notes: Intact IgG1 from fully human antibody-transgenic mice
# B5: CA518 (antibody, human IgG1, kappa, V domains shown)
# VH: B4 VH with Y60H, A97V
# VL: B4 VL with V3Q, L11V, N31S, Y32W, F36Y, V43A, T53S
# notes: Intact IgG1
# B6: CA67 (antibody, human IgG1, kappa, V domains shown)
# VH: B4 VH with F80Y
# VL: B4 VL with V3Q, G28A, F36Y, Q55H, S56P
# notes: Intact IgG1
# B7: reference antibody hL49 (antibody, human IgG1, kappa, V domains shown)
# VH: QVQLQESGPGLVKPSETLSLTCTVSGDSITSGYWNWIRQPPGKGLEYIGYISDSGITYYNPSLKSRVTISRDTSKNQYSLKLSSVTAADTAVYYCARRTLATYYAMDYWGQGTLVTVSS
# VL: DFVMTQSPLSLPVTLGQPASISCRASQSLVHSDGNTYLHWYQQRPGQSPRLLIYRVSNRFSGVPDRFSGSGSGTDFTLKISRVEAEDVGVYYCSQSTHVPPTFGQGTKLEIKR
# notes: also called H149; hL49 analogy
# Target: T1, Human CD228 protein
# Assay: Octet competition on His-chip CD228; competitor: CA149
# Method: (§1) CD228 proteins were immobilized on His chips at 10 μg/mL with a threshold of 0.5 nm. The first CD228 antibody (30 μg/mL) was immobilized, and the competitive binding of the second CD228 antibody (30 μg/mL) was analyzed. The Octet 8K system was used to analyze the response of antibody 2 and to determine whether antibody 1 and antibody 2 were in competition.
row,Octet response value,Binder
1,0.0039,B1
2,0.0089,B2
3,0.416,B3
4,-0.0059,B4
5,-0.0041,B5
6,-0.012,B6
7,0.435,B7

# Target: T1, Human CD228 protein
# Assay: Octet competition on His-chip CD228; competitor: CA518
# Method: as §1
row,Octet response value,Binder
1,0.0079,B1
2,0.0029,B2
3,0.458,B3
4,-0.0081,B4
5,-0.0046,B5
6,-0.0133,B6
7,0.456,B7

# Target: T1, Human CD228 protein
# Assay: Octet competition on His-chip CD228; competitor: CA185
# Method: as §1
# The final competition analysis was conducted using the following calculation method: 1—response value/blank value.
row,competition (1-response value/blank value),Binder
1,98%,B1
2,99%,B2
3,-3%,B3
4,101%,B4
5,101%,B5
6,103%,B6
7,-5%,B7

# Target: T1, Human CD228 protein
# Assay: Octet competition on His-chip CD228; competitor: CA67
# Method: as §1
row,Octet response value,Binder
1,0.0087,B1
2,0.0028,B2
3,0.443,B3
4,-0.0021,B4
5,0.0039,B5
6,-0.007,B6
7,0.456,B7

# Target: T1, Human CD228 protein
# Assay: ELISA, plate coated with human CD228 protein
# Method: Human CD228 protein (prepared by Boan, 20201014, SEQ ID NO: 41) was diluted to 0.1 μg/mL with a carbonate-buffered saline (hereinafter referred to as CBS) at pH 9.6. Microplates were coated with the protein at 100 μL/well, and incubated at 4° C. overnight. After washing, the microplates were blocked with skimmed milk powder. The plates were washed, before antibodies diluted with PBST (phosphate-buffered saline, Solarbio P1010, +0.05% Tween20) were added at 100 μL/well. The diluted antibodies were intact antibodies comprising Fc, Fab and the constant region serially 3-fold diluted from 0.1 μg/mL to 8 concentrations with PBST. After washing the plates, goat anti-human IgG (H+L)/HRP (diluted at 1:5000, KPL, 474-1006) was added at 100 μL/well, and the plates were incubated at 37° C. for 1 h. After washing the plates, TMB (Beijing Makewonderbio, 1001) was added at 100 μL/well for chromogenesis, and after 10 min, 50 μL of 2 M H₂SO₄ was added to stop the chromogenesis. OD450 was measured on a microplate reader. The antibody hL49 targeting CD228 from Seagen was used as a reference antibody in this study and the following studies.
row,EC50,Binder
1,3.6 ng/mL,B1
2,3.9 ng/mL,B2
3,6.1 ng/mL,B3
4,3.2 ng/mL,B4
5,4.3 ng/mL,B5
6,3.8 ng/mL,B6
7,27.8 ng/mL,B7

# Target: T1, Human CD228 protein
# Assay: Octet competition on His-chip CD228; competitor: CA185
# Remark: another data set of the same source
# Method: as §1
row,Octet response value,Binder
1,0.0102,B1
2,0.0055,B2
3,0.426,B3
4,-0.0061,B4
5,-0.0043,B5
6,-0.0132,B6
7,0.432,B7

# Target: T1, Human CD228 protein
# Assay: Octet competition on His-chip CD228; competitor: BA352
# Method: as §1
row,Octet response value,Binder
1,0.442,B1
2,0.459,B2
3,0.0217,B3
4,0.427,B4
5,0.415,B5
6,0.423,B6
7,0.177,B7

# Target: T1, Human CD228 protein
# Assay: Octet, CD228 on His chip; PBST buffer in place of the first antibody
# Method: as §1
row,"Octet response value (blank value, PBST buffer)",Binder
1,0.409,B1
2,0.411,B2
3,0.393,B3
4,0.393,B4
5,0.442,B5
6,0.425,B6
7,0.347,B7
